In paper PMC6144507 (Molecular Pain, 2018) one finds IC50 data, which are given here for 1 molecule.

The assay addresses His-nNOS(1-299) (UniProt P29475-1 1-299). Nature of the assay: AlphaScreen or HTRF. Background: In Alpha technology, singlet oxygen from a donor bead excites a nearby acceptor bead.

Sequence of His-nNOS(1-299) (P29475 1-299): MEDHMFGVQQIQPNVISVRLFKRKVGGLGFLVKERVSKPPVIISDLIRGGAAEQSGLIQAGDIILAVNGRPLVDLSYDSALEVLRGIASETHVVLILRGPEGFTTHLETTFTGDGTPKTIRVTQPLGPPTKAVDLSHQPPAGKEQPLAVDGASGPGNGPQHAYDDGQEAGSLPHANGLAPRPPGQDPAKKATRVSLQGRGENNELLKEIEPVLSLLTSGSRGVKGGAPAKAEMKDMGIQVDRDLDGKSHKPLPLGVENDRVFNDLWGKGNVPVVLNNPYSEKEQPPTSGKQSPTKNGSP

On to GRKKRRQRRRYAGQWGESV [L-TAT-GESV], for which inhibition was half-maximal at 4.9 µM (IC50).
